Experiment [1] addresses T1, human NPRA on HEK293 cells, without added ligand (human, UniProt P16066 33-1061).
T1 construct: a signal peptide is not delimited; also called HEK NPRA cells; HEK hNPRA cells
T1 sequence: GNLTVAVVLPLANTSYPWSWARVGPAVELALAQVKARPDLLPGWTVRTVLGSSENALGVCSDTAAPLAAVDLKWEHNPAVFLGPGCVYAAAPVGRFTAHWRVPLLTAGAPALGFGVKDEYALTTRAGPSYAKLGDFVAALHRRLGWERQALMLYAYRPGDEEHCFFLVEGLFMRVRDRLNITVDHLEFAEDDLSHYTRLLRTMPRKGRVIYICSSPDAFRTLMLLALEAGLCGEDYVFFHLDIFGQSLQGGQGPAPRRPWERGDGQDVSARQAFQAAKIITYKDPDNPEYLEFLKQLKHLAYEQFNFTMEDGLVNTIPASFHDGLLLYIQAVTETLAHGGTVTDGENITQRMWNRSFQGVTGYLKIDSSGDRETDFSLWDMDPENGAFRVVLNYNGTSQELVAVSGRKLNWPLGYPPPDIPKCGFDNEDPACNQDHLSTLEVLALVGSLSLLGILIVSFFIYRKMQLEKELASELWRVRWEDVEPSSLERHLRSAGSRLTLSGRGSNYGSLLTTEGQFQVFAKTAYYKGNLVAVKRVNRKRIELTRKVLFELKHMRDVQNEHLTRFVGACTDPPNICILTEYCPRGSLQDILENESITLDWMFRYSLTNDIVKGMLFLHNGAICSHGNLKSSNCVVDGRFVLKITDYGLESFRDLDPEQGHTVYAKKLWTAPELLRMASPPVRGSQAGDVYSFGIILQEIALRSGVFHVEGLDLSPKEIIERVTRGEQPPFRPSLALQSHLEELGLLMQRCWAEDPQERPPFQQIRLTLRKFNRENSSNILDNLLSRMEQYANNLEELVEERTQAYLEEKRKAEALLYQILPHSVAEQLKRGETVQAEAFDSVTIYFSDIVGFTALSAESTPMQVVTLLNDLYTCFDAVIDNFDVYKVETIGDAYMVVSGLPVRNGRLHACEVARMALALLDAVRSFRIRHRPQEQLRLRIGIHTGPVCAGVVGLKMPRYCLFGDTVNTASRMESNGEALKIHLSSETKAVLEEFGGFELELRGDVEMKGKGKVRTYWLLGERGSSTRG
Description: FACS, HEK NPRA cells without ligand. In general terms: In flow cytometry, cells or beads pass a laser one at a time.

Experiment [2] has as its target T2, rat NPRA on HEK cells bound to ANP (rat, UniProt P18910 29-1057; P01161 123-150).
T2 sequence (looked up): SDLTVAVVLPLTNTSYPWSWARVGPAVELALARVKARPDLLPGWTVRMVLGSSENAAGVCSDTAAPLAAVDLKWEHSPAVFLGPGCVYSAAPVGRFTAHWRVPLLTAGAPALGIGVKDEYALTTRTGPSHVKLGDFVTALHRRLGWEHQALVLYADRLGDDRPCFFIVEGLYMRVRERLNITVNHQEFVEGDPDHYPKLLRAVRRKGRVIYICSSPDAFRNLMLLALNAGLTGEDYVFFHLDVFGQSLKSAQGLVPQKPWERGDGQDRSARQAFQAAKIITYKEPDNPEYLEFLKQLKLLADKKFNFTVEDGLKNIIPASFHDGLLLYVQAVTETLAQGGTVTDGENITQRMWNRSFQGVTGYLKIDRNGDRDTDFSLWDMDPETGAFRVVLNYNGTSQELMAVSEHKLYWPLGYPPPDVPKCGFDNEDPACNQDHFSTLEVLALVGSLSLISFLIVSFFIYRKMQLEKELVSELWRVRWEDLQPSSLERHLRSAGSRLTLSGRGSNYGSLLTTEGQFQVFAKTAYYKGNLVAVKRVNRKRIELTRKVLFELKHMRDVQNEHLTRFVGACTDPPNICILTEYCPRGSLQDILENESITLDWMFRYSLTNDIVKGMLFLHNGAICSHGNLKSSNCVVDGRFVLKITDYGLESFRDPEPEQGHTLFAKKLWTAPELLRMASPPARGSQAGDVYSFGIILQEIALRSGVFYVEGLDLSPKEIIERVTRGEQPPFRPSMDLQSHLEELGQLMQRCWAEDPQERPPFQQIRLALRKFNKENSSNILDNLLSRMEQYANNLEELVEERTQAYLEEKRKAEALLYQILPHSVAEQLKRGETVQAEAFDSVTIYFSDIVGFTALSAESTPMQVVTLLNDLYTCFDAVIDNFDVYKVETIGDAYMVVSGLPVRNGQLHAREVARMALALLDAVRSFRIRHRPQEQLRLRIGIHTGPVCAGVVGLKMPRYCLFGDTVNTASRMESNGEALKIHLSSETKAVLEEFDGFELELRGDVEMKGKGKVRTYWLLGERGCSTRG
T2 sequence (peptide, looked up): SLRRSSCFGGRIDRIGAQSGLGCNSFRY
Description: cell-based or functional assay.

Experiment [3] concerns the target T2, rat NPRA on HEK cells bound to ANP. Description: KinExA whole cell binding (Kd,app), HEK cells with rat NPRA, ANP bound. (In general: In KinExA the mixture passes briefly over coated beads that capture the unbound partner.)
Experiment [4] addresses canine NPRA on HEK cells bound to ANP (canine, UniProt A0A8I3MHU3 32-1060). Briefly: KinExA whole cell binding (Kd,app), HEK cells with canine NPRA, ANP bound.
For experiment [5], the target named is T3, human NPRA on HEK293 cells bound to ANP (human, UniProt P01160 124-151).
T3 construct: mature; Receptor-ligand complex on cells; also called HEK NPRA cells loaded with ANP; ANP-NPRA complex
T3 sequence: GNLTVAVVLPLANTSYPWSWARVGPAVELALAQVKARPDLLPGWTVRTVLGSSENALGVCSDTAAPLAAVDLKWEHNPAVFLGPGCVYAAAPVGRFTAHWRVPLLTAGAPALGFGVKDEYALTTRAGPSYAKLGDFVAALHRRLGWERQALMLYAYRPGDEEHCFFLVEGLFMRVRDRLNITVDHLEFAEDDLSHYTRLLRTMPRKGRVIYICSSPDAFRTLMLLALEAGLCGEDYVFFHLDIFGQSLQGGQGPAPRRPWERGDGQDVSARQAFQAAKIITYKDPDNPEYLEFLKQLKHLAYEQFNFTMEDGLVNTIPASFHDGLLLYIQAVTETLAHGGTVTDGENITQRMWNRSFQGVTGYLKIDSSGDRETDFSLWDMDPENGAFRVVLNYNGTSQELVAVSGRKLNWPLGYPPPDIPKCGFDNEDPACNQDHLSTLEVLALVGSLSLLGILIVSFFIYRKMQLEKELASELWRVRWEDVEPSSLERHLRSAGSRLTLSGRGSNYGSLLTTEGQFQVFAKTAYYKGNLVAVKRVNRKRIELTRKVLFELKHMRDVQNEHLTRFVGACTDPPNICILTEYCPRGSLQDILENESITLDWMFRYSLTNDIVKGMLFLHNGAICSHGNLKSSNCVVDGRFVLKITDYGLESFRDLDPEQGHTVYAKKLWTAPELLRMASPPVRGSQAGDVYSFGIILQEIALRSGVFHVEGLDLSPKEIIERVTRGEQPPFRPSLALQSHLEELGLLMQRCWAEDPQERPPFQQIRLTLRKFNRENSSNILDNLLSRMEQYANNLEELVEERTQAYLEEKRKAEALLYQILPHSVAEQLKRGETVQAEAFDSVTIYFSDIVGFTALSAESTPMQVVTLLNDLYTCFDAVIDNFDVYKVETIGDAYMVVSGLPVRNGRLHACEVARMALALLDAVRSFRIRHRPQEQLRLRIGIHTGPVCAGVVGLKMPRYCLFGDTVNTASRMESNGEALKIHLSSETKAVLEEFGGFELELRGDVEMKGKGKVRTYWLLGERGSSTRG
T3 sequence (peptide): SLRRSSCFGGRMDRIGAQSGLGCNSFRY
Description: KinExA whole cell binding, HEK NPRA cells with 1 nM ANP, against SPR on NPRA-Fc.

In experiment [6] the target is T3, human NPRA on HEK293 cells bound to ANP. Description: KinExA whole cell binding (Kd,app), HEK cells with human NPRA, ANP bound, 75 and 200 pM IgG.
Description: Initial species cross-reactivity studies are performed using HEK cell lines overexpressing rat, canine and rhesus monkey NPRA. […] These apparent Kd values are obtained by globally fitting the data for two antibody concentrations.

Chain of canine NPRA on HEK cells bound to ANP (A0A8I3MHU3 entry or part of it): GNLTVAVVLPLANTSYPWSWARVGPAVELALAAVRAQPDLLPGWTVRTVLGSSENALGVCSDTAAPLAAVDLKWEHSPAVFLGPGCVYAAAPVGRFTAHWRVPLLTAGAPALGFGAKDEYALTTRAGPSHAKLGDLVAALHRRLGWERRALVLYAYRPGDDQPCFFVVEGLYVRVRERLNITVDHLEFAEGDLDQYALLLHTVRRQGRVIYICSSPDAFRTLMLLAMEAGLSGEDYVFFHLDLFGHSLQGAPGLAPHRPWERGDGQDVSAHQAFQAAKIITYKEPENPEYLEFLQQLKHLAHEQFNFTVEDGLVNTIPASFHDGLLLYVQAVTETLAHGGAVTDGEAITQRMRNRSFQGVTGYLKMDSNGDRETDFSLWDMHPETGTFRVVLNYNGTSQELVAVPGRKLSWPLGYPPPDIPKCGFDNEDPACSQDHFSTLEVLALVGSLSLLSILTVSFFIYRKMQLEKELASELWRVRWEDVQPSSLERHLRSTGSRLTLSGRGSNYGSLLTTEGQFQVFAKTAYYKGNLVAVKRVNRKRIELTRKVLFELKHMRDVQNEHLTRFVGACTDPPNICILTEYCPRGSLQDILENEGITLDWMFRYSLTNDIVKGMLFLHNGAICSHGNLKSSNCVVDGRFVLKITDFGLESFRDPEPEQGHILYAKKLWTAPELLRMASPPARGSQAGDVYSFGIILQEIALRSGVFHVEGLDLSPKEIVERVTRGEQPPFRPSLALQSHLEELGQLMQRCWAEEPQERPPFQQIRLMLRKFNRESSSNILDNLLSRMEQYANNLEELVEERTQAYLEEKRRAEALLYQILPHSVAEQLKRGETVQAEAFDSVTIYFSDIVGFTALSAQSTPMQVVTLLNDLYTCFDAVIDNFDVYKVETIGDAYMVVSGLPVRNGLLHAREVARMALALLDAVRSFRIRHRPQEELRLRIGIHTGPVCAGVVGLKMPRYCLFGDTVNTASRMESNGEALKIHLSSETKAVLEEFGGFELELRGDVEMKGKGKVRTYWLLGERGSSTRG

B1: 5502 IgG4_Pro (antibody, V domains shown)
VH: QVQLQQSGPGLVKPSQTLSLTCAISGDSVSSRSASWSWIRQSPGRGLEWLGRIYYRSKWYNDYAVSVKSRITINPDTSKNQFSLQLNSVTPEDTAVYYCARMDVPSFRYFDVWGQGTLVTVSS
VL: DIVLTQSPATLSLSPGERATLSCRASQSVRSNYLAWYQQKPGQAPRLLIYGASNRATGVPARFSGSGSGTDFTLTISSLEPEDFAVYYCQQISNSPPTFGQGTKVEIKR
notes: Human IgG4_Pro
For B1, in experiment [1], the binding result is “no binding (tested: 20 nM)”.

B2: 5591 IgG4_Pro (antibody, V domains shown)
VH: QVQLQQSGPGLVKPSQTLSLTCAISGDSVSSRSASWSWIRQSPGRGLEWLGRTYYRSHWYYEYAQSVKSRITINPDTSKNQFSLQLNSVTPEDTAVYYCARMDVPSFRYFDVWGQGTLVTVSS
VL: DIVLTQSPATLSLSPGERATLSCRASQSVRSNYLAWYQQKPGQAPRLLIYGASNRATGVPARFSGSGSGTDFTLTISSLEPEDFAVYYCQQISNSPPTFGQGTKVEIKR
As to B2, in experiment [2], the “Fold shift in EC50 of ANP (cGMP), HEK cells with rat NPRA” value turned out to be 3 fold. For the same molecule, the Kd was 13 pM in experiment [3], 96 pM in experiment [4] and 590 pM in experiment [6]. For the same molecule, the “fold, apparent Kd on cells (KinExA) over Kd by surface plasmon resonance on NPRA-Fc” value in experiment [5] is ~20 fold.

The record behind these values is patent publication US20160168251A1 (MorphoSys, published 2016).
